From publication PMC9870871, “Investigating the effects of cyclic topology on the performance of a plastic degrading enzyme for polyethylene terephthalate degradation” (Scientific Reports, 2023) come the findings set out here.

Usually Km stands for the concentration of substrate that gives half-maximal velocity.

Substrate in this data set: CC(=O)Oc1ccc([N+](=O)[O-])cc1
The data set is described as follows: purified protein. The class given is biochemical, Pseudideonella sakaiensis. Particulars: 50 mM Na2HPO4 pH 7.5, 30 °C, 5% v/v DMSO, 10 nM enzyme, 0-5.0 mM substrate.

B1: IsPETase-WT (Pseudideonella sakaiensis) (protein)
chain: QTNPYARGPNPTAASLEASAGPFTVRSFTVSRPSGYGAGTVYYPTNAGGTVGAIAIVPGYTARQSSIKWWGPRLASHGFVVITIDTNSTLDQPSSRSSQQMAALRQVASLNGTSSSPIYGKVDTARMGVMGWSMGGGGSLISAANNPSLKAAAPQAPWDSSTNFSSVTVPTLIFACENDSIAPVNSSALPIYDSMSRNAKQFLEINGGSHSCANSGNSNQALIGKKGVAWMKRFMDNDTRYSTFACENPNSTRVSDFRTANCS
notes: linear wild-type enzyme, synthetic gene in pET-28a(+) or pET-21b(+), E. coli Shuffle T7 Express, Ni-NTA and SEC; monomer
B1: the Michaelis-Menten constant (Km) stood at 2700 ± 300 µM.
